Measurements as given in article PMC10175506, “Cryo-electron microscopy of the f1 filamentous phage reveals insights into viral infection and assembly” (Nature Communications, 2023).

B1: pVII, minor capsid protein of f1 phage (natural protein, UniProt P69534 1-33, looked up)
chain: MEQVADFDTIYQAMIQISVVLCFALGIIAGGQR
notes: the five N-terminal residues (MEQVA) are not visible in the map; Arg 33 is the C-terminal residue; Five copies stand in the round tip of the nanorod; source: expressed from helper plasmid pHP1YM in double-transformed host cells, assembled into f1-derived nanorods; nanorods purified from the supernatant (PEG, CsCl density gradient, anion exchange)

How the values were obtained:
[1] = molecular target: the molecule itself; test: cryo-EM structure; purified f1-derived nanorods (529-nt ssDNA) plunge-frozen; map of the round tip, 5-fold symmetry applied, 2.8 Å
[2] = molecular target: the molecule itself; test: cryo-EM structure; purified f1-derived nanorods (529-nt ssDNA) plunge-frozen; map of the pointy tip, 5-fold symmetry applied, 2.9 Å
[3] = molecular target: B1; test: cryo-EM structure; purified f1-derived nanorods (529-nt ssDNA) plunge-frozen; map of the round tip, 5-fold symmetry applied, 2.8 Å; settings: both partners purified

## B1
[1]
  stoichiometry N: 5

B2: pVI, minor capsid protein of f1 phage (natural protein, UniProt P69531 1-112, looked up)
chain: MPVLLGIPLLLRFLGFLLVTLFGYLLTFLKKGFGKIAIAISLFLALIIGLNSILVGYLSDISAQLPSDFVQGVQLILPSNALPCFYVILSVKAAIFIFDVKQKIVSYLDWDK
notes: density observed for the entire protein; Five copies stand in the pointy tip of the nanorod; source: expressed from helper plasmid pHP1YM in double-transformed host cells, assembled into f1-derived nanorods; nanorods purified from the supernatant (PEG, CsCl density gradient, anion exchange)
[2]
  stoichiometry N: 5

B3: pIX, minor capsid protein of f1 phage (natural protein, UniProt P69537 1-32, looked up)
chain: MSVLVYSFASFVLGWCLRSGITYFTRLMETSS
notes: Five copies stand in the round tip of the nanorod; source: expressed from helper plasmid pHP1YM in double-transformed host cells, assembled into f1-derived nanorods; nanorods purified from the supernatant (PEG, CsCl density gradient, anion exchange)
[3]
  binding result: binds
